3 variants from IntAct's records for PubMed 20150898 can be followed below.

To fix the notation:
B1: Actin cytoskeleton-regulatory complex protein SLA1 (Saccharomyces cerevisiae), P32790 (parent)
chain: MTVFLGIYRAVYAYEPQTPEELAIQEDDLLYLLQKSDIDDWWTVKKRVIGSDSEEPVGLVPSTYIEEAPVLKKVRAIYDYEQVQNADEELTFHENDVFDVFDDKDADWLLVKSTVSNEFGFIPGNYVEPENGSTSKQEQAPAAAEAPAATPAAAPASAAVLPTNFLPPPQHNDRARMMQSKEDQAPDEDEEGPPPAMPARPTATTETTDATAAAVRSRTRLSYSDNDNDDEEDDYYYNSNSNNVGNHEYNTEYHSWNVTEIEGRKKKKAKLSIGNNKINFIPQKGTPHEWSIDKLVSYDNEKKHMFLEFVDPYRSLELHTGNTTTCEEIMNIIGEYKGASRDPGLREVEMASKSKKRGIVQYDFMAESQDELTIKSGDKVYILDDKKSKDWWMCQLVDSGKSGLVPAQFIEPVRDKKHTESTASGIIKSIKKNFTKSPSRSRSRSRSKSNANASWKDDELQNDVVGSAAGKRSRKSSLSSHKKNSSATKDFPNPKKSRLWVDRSGTFKVDAEFIGCAKGKIHLHKANGVKIAVAADKLSNEDLAYVEKITGFSLEKFKANDGSSSRGTDSRDSERERRRRLKEQEEKERDRRLKERELYELKKARELLDEERSRLQEKELPPIKPPRPTSTTSVPNTTSVPPAESSNNNNSSNKYDWFEFFLNCGVDVSNCQRYTINFDREQLTEDMMPDINNSMLRTLGLREGDIVRVMKHLDKKFGRENIASIPTNATGNMFSQPDGSLNVATSPETSLPQQLLPQTTSPAQTAPSTSAETDDAWTVKPASKSESNLLSKKSEFTGSMQDLLDLQPLEPKKAAASTPEPNLKDLEPVKTGGTTVPAAPVSSAPVSSAPAPLDPFKTGGNNILPLSTGFVMMPMITGGDMLPMQRTGGFVVPQTTFGMQSQVTGGILPVQKTGNGLIPISNTGGAMMPQTTFGAAATVLPLQKTGGGLIPIATTGGAQFPQTSFNVQGQQQLPTGSILPVQKTANGLISANTGVSMPTVQRTGGTMIPQTSFGVSQQLTGGAMMTQPQNTGSAMMPQTSFNAVPQITGGAMMPQTSFNALPQVTGGAMMPLQRTGGALNTFNTGGAMIPQTSFSSQAQNTGGFRPQSQFGLTLQKTGGIAPLNQNQFTGGAMNTLSTGGVLQQQQPQTMNTFNTGGVMQELQMMTTFNTGGAMQQPQMMNTFNTDGIMQQPQMMNTFNTGGAMQQPQQQALQNQPTGFGFGNGPQQSRQANIFNATASNPFGF

Assay [1] covers variants of B1. The following applies: with clh_yeast CHC1, P22137.
The variants in assay [2] derive from B1. The following applies: with clh_yeast CHC1, P22137. The source holds these as a separate data set.

clh_yeast CHC1, P22137, sequence (P22137 whole entry): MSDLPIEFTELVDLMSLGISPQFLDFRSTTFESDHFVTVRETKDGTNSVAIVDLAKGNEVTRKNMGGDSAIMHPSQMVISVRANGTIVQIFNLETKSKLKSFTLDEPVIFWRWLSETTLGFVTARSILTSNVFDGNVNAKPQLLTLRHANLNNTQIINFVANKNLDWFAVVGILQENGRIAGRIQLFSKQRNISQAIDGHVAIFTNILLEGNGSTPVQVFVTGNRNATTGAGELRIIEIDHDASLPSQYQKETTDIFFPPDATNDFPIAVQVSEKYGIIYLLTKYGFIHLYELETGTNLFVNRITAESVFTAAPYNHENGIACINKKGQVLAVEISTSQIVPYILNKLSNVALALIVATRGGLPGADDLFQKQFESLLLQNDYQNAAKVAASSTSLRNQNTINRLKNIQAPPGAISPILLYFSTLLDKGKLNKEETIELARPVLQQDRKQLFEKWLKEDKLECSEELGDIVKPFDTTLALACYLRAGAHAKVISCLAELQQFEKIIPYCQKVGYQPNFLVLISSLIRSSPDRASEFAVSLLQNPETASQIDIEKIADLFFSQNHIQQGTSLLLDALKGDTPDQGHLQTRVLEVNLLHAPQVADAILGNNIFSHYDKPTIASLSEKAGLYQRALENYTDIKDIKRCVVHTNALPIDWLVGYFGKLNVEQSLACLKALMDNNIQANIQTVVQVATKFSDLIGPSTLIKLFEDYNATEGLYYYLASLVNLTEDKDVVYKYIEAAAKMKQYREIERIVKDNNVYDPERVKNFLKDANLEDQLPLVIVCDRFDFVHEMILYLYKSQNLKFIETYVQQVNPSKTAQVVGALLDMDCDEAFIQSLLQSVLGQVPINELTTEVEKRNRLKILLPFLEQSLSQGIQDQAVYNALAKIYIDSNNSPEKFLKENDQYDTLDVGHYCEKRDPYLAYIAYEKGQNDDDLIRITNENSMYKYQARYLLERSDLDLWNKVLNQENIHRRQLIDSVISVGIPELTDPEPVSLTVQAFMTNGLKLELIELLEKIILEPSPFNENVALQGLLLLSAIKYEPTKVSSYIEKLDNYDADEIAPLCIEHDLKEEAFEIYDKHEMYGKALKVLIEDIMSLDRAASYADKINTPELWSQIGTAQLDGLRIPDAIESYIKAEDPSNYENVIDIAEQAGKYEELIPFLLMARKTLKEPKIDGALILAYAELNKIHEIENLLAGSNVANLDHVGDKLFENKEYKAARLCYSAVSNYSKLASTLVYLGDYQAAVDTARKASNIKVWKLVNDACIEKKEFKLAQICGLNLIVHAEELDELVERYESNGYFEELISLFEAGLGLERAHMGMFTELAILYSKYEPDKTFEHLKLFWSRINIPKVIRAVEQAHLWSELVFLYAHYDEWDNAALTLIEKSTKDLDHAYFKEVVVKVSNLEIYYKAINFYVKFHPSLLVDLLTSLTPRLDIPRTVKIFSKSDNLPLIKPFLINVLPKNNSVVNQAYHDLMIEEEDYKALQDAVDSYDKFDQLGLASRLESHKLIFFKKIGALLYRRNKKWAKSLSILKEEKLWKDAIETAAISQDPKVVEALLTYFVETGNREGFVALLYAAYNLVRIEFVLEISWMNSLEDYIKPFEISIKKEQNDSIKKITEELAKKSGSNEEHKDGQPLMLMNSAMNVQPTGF

L803A: the “effect of a mutation on the interaction” value is on record as “decreasing interaction” with clh_yeast CHC1, P22137 [1] and “disrupting interaction” in the assay with clh_yeast CHC1, P22137 [2].

Take D805A: the “effect of a mutation on the interaction” value with clh_yeast CHC1, P22137 [1] is given as “decreasing interaction”; in the assay with clh_yeast CHC1, P22137 [2], “disrupting interaction”.

Consider L804A, for which the “effect of a mutation on the interaction” value is given as “decreasing interaction” with clh_yeast CHC1, P22137 [1] and “disrupting interaction” in the assay with clh_yeast CHC1, P22137 [2].
